Where no end group is shown, it is not given here.
molecular target: ECE-1 (Homo sapiens, UniProt P42892); assay: not given; conditions: 10 nmol peptide in 750 µl 0.2 M acetate buffer pH 5.5 (GLP-1 also at neutral pH), 0.25 µg recombinant ECE-1, 37 °C, up to 24 h, RP-HPLC C18, UV 214 nm, peak area with versus without enzyme, n = 2-3
Sequence (P42892 whole entry, species assumed): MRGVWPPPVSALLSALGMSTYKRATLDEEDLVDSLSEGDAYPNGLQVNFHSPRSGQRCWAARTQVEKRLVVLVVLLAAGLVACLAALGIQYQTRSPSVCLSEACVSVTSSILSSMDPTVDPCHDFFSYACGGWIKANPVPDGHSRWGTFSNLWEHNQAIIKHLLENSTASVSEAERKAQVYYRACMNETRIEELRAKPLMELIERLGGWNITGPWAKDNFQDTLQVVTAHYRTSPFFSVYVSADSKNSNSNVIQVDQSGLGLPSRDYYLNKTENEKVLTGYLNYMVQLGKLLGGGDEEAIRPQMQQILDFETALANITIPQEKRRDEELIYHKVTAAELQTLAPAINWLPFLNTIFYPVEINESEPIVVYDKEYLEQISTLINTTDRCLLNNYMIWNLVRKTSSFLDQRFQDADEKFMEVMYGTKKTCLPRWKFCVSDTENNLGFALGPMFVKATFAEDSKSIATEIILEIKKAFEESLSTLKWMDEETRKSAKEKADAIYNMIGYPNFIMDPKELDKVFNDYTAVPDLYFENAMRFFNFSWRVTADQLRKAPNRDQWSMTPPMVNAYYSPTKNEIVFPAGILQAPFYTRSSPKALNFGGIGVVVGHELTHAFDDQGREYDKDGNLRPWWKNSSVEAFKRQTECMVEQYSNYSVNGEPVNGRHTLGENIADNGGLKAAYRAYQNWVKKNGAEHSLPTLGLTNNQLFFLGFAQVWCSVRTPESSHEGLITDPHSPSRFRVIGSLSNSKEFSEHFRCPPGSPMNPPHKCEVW

In the case of `CC[C@H](C)[C@H](NC(=O)[C@H](Cc1ccccc1)NC(=O)[C@H](CC(C)C)NC(=O)[C@H](CCCNC(=N)N)NC(=O)[C@@H](NC(=O)[C@H](C)NC(=O)[C@H](CCC(=O)O)NC(=O)[C@H](CCC(=O)O)NC(=O)[C@H](CCC(=O)O)NC(=O)[C@H](CC(C)C)NC(=O)[C@H](Cc1ccc(O)cc1)NC(=O)[C@H](CO)NC(=O)[C@H](CO)NC(=O)[C@@H](NC(=O)[C@H](CC(=O)O)NC(=O)[C@H](CO)NC(=O)[C@@H](NC(=O)[C@H](Cc1ccccc1)NC(=O)[C@@H](NC(=O)CNC(=O)[C@H](CCC(=O)O)NC(=O)[C@H](C)NC(=O)[C@@H](N)Cc1c[nH]cn1)[C@@H](C)O)[C@@H](C)O)C(C)C)C(C)C)C(=O)N[C@@H](CCC(=O)O)C(=O)N[C@@H](Cc1c[nH]c2ccccc12)C(=O)N[C@@H](CC(C)C)C(=O)N[C@@H](CCCCN)C(=O)N[C@@H](CC(N)=O)C(=O)NCC(=O)NCC(=O)N1CCC[C@H]1C(=O)N[C@@H](CO)C(=O)N[C@@H](CO)C(=O)NCC(=O)N[C@@H](C)C(=O)N1CCC[C@H]1C(=O)N1CCC[C@H]1C(=O)N1CCC[C@H]1C(=O)N[C@@H](CO)C(N)=O` [Chi3], the “In vitro peptide degradation by / resistance to ECE-1 (in words)” value is reported as “most ECE-1-resistant”.
For “HAEGTFTSDVSSYLEGQAAKEFIEWLKNGGPSSGAPPPS-NH2 [Chi2]”, the “In vitro peptide degradation by / resistance to ECE-1 (in words)” value was “most ECE-1-resistant”.

same assay, conditions: pH 5.5

For `CC[C@H](C)[C@H](NC(=O)[C@H](Cc1ccccc1)NC(=O)[C@H](CCC(=O)O)NC(=O)[C@H](CCCCN)NC(=O)[C@H](C)NC(=O)[C@H](C)NC(=O)[C@H](CCC(N)=O)NC(=O)CNC(=O)[C@H](CCC(=O)O)NC(=O)[C@H](CC(C)C)NC(=O)[C@H](Cc1ccc(O)cc1)NC(=O)[C@H](CO)NC(=O)[C@H](CO)NC(=O)[C@@H](NC(=O)[C@H](CC(=O)O)NC(=O)[C@H](CO)NC(=O)[C@@H](NC(=O)[C@H](Cc1ccccc1)NC(=O)[C@@H](NC(=O)CNC(=O)[C@H](CCC(=O)O)NC(=O)CNC(=O)[C@@H](N)Cc1cnc[nH]1)[C@@H](C)O)[C@@H](C)O)C(C)C)C(=O)N[C@@H](C)C(=O)N[C@@H](Cc1c[nH]c2ccccc12)C(=O)N[C@@H](CC(C)C)C(=O)N[C@H](C(=O)N[C@@H](CCCCN)C(=O)NCC(=O)N[C@@H](CCCNC(=N)N)C(N)=O)C(C)C` [GLP-1-G2], the “In vitro peptide degradation by / resistance to ECE-1 (in words)” value was “ECE-1-sensitive”.

molecular target: SNAP-GLP-1R (pSNAP-GLP-1R) on HEK293-SNAP-GLP-1R cells (UniProt P43220); assay: FRET or BRET; conditions: not given
Sequence (P43220 24-463): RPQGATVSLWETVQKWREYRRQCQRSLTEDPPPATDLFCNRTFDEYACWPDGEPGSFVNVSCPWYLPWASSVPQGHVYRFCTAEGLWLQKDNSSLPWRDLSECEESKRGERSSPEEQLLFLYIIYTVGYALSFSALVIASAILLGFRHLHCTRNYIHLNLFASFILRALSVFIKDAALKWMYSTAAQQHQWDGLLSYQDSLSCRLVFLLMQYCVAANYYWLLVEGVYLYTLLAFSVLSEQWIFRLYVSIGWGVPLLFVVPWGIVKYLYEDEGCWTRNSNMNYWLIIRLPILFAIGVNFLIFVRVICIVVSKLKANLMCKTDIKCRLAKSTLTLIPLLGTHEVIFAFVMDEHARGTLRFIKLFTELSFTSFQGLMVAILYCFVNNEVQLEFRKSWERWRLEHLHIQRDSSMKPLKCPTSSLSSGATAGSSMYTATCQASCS

In order of falling Log Ki:
1. Chi1, N-terminus F1 (phe1 derivative) (peptide)  -6.4 Log (M)
2. exendin-phe1 (peptide)  -7.3 Log (M)
3. exendin-4(1-30), N-terminus F1 (phe1 derivative) (peptide)  -7.5 Log (M)
4. Chi1 (GLP-1 with the exendin-4 Trp-cage added to its C-terminus) (peptide)  -8.2 Log (M)
5. Chi1, N-terminus D3 (asp3 derivative) (peptide)  -8.5 Log (M)
6. exendin-4(1-30) (peptide)  -9 Log (M)
7. exendin-4(1-30), N-terminus D3 (asp3 derivative) (peptide)  -9.2 Log (M)
8. exendin-4, N-terminus D3 (asp3 derivative) (peptide)  -9.2 Log (M)
9. exendin-4 (from UniProt P26349 48-87) (peptide)  -9.5 Log (M)
